Holding throughout (conditions): remark: other sources report otherwise
Experiment [1] addresses T1, HLA-DR DRB1*0401 (human).
T1 chain 1: not shown
T1 chain 2: not shown
Put plainly: radiolabeled-peptide inhibition, purified HLA-DR.

The target in experiment [2] is T2, HLA-DR DRB1*0405 (human).
T2 chain 1: not shown
T2 chain 2: not shown
Kind of experiment: radiolabeled-peptide inhibition, purified HLA-DR.

In experiment [3] the target is T3, HLA-DR DRB1*1101 (human).
T3 chain 1: not shown
T3 chain 2: not shown
Kind of experiment: radiolabeled-peptide inhibition, purified HLA-DR.

In experiment [4] the target is T4, HLA-DR DRB5*0101 (human).
T4 chain 1: not shown
T4 chain 2: not shown
Kind of experiment: radiolabeled-peptide inhibition, purified HLA-DR.

Experiment [5] has as its target T5, HLA-DR DRB1*0404 (human).
T5 chain 1: not shown
T5 chain 2: not shown
Kind of experiment: radioligand inhibition, purified HLA-DR.

Experiment [6] concerns the target T2, HLA-DR DRB1*0405 (human). Put plainly: radioligand inhibition, purified HLA-DR.
Experiment [7] has as its target T6, HLA-DR DRB1*0701 (human).
T6 chain 1: not shown
T6 chain 2: not shown
Kind of experiment: radioligand inhibition, purified HLA-DR.

Experiment [8] has as its target T7, HLA-DR DRB4*0101 (human).
T7 chain 1: not shown
T7 chain 2: not shown
Put plainly: radioligand inhibition, purified HLA-DR.

The target in experiment [9] is T4, HLA-DR DRB5*0101 (human). Put plainly: radioligand inhibition, purified HLA-DR.
The target in experiment [10] is T1, HLA-DR DRB1*0401 (human). Put plainly: radioligand inhibition, purified HLA-DR.
Experiment [11] has as its target T3, HLA-DR DRB1*1101 (human). Put plainly: radioligand inhibition, purified HLA-DR.
The target of experiment [12] is T8, HLA-DR DRB1*1302 (human).
T8 chain 1: not shown
T8 chain 2: not shown
Put plainly: radioligand inhibition, purified HLA-DR.

Experiment [13] addresses T9, HLA-DR DRB1*0101 (human).
T9 chain 1: not shown
T9 chain 2: not shown
Put plainly: radioligand inhibition, purified HLA-DR.

For experiment [14], the target named is T9, HLA-DR DRB1*0101 (human). Kind of experiment: radiolabeled-peptide inhibition, purified HLA-DR.
For experiment [15], the target named is T5, HLA-DR DRB1*0404 (human). Put plainly: radiolabeled-peptide inhibition, purified HLA-DR.
The target of experiment [16] is T6, HLA-DR DRB1*0701 (human). Put plainly: radiolabeled-peptide inhibition, purified HLA-DR.
Experiment [17] deals with T10, HLA-DR DRB1*1201 (human).
T10 chain 1: not shown
T10 chain 2: not shown
Put plainly: radioligand inhibition, purified HLA-DR.

Experiment [18] concerns the target T8, HLA-DR DRB1*1302 (human). Kind of experiment: radiolabeled-peptide inhibition, purified HLA-DR.
Experiment [19] concerns the target T7, HLA-DR DRB4*0101 (human). Kind of experiment: radiolabeled-peptide inhibition, purified HLA-DR.

Consider SDVWSYGVTVWELMT [9019.0089], for which the IC50 in experiment [1] was found to be 2760 nM; in experiment [2], 1900 nM; in experiment [3], 2640 nM; in experiment [4], 5420 nM.

With FYTLHVIKSDLVNEE [CEA.119 peptide 9019.0114], the IC50 in experiment [5] was determined as 169 nM; in [6], 41 nM; in [7], 56 nM; in experiment [8] it was 22 nM; in experiment [9] it was 4500 nM.

As to SDSVILNVLYGPDAP [CEA.123 peptide 9019.0119 (position 226)], the concentration for half-maximal inhibition (IC50) in experiment [10] amounted to 255 nM; in experiment [7] it was 5240 nM; in experiment [11], 9210 nM; in experiment [12] it was 83 nM; in experiment [8], 612 nM.

Turning to SITVSASGTSPGLSA [CEA.671 peptide 9919.0143], the 50% inhibitory concentration (IC50) in experiment [13] was 2810 nM; in experiment [10], 75 nM; in [5], 11 nM; in [6], 3570 nM; in [7], 1560 nM; in experiment [11] it was 3320 nM. Moreover, the IC50 in experiment [12] is 592 nM; in experiment [9], 15100 nM.

In the case of AKGLQSLPTHDPSPL [Peptide 9019.0098], the concentration for half-maximal inhibition (IC50) in experiment [13] stood at 149 nM; in experiment [6], 3860 nM; in experiment [7] it was 4460 nM; in experiment [11], 6810 nM; in experiment [12], 3990 nM; in [8] it was 572 nM.

Regarding QYSWRINGIPQQHTQ [CEA.624 peptide 9019.0138], the IC50 in [13] was determined as 472 nM; in [10] it was 43 nM; in experiment [6], 311 nM; in [11], 151 nM; in [8] it was 2290 nM.

As for SQFLRGQECVEECRV [9019.0062], the 50% inhibitory concentration (IC50) in experiment [14] was found to be 462 nM; in experiment [1], 1020 nM; in experiment [15], 4550 nM; in [16] it was 540 nM; in experiment [4], 7040 nM.

On to LLTFWNPPTTAKLTI [CEA.24 peptide 9019.0105], for which the half-maximal inhibitory concentration (IC50) worked out at 69 nM in experiment [13]; 52 nM in experiment [5]; 3.7 nM in [7]; 52 nM in [11]; 3000 nM in [17]; 31 nM in experiment [9].

As for ISAVVGILLVVVLGV [9019.0067], the IC50 is 420 nM in experiment [1]; 3000 nM in [15]; 447 nM in [2]; 941 nM in experiment [16]; 443 nM in experiment [18]; 3110 nM in experiment [19].

In the case of LREVRAVTSANIQEF [9019.0046], the IC50 in experiment [14] came to 17 nM; in [4], 94 nM.

TAKLTIESTPFNVAE [CEA.33 peptide 9019.0106]: the IC50 turned out to be 41 nM in experiment [5], 2310 nM in experiment [17], 35 nM in experiment [12] and 53 nM in experiment [8].

Consider TEILKGGVLIQRNPQ [Her2/neu.146], for which the IC50 in [13] was 11 nM; in experiment [10], 40 nM; in [5], 32 nM; in experiment [6], 760 nM; in [7], 2490 nM; in [11], 692 nM. Also, the IC50 was found to be 343 nM in [12] and 1880 nM in experiment [9].

As usually defined, the IC50 is the concentration that inhibits the measured activity by half. A higher IC50 goes with weaker potency in that assay.

The values are drawn from patent US20100310640A1.
